The record followed here is patent publication US20110086026A1 (ROCHE PALO ALTO, published 2011).

T1: hIL-13Rα1:hFc chimeric protein (R&D Systems, UK) (human, UniProt P78552 22-343)
T1 construct: extracellular domain; Bought; also called chimeric hIL-13Rα1:hFc; not shown: human Fc (hFc) of the bought chimera
T1 sequence (looked up): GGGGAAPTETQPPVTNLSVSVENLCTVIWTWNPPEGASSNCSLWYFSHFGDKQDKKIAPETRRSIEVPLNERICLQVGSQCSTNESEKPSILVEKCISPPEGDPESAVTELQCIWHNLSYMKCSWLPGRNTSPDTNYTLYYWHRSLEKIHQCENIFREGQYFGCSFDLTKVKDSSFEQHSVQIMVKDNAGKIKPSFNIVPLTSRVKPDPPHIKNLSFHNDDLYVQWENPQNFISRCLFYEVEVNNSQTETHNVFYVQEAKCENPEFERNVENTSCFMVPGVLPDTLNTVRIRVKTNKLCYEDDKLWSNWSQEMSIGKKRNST

T2: Cynomolgus IL-13Rα1 expressed in transfected Ba/F3 cells (Cynomolgus, UniProt A0A7N9D0M5 20-425)
T2 construct: Stably transfected murine Ba/F3 cells
T2 sequence: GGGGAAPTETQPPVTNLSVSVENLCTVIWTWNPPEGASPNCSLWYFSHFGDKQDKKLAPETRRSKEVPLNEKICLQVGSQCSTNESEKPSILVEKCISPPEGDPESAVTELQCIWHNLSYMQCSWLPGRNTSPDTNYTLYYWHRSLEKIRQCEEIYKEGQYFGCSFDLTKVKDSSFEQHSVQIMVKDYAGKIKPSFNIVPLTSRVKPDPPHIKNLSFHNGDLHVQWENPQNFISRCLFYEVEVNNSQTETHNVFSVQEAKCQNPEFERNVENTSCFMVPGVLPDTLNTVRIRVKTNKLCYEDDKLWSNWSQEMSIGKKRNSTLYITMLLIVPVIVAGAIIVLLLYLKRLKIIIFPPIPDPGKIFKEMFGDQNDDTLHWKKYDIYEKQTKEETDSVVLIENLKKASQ

T3: human IL-13Rα1 (human, UniProt P78552 22-427)
T3 construct: whole, on cells; also called IL-13Ralpha1; IL-13Rα1 on CHO cells expressing human IL-13Rα1 and human IL-4Rα
T3 sequence (looked up): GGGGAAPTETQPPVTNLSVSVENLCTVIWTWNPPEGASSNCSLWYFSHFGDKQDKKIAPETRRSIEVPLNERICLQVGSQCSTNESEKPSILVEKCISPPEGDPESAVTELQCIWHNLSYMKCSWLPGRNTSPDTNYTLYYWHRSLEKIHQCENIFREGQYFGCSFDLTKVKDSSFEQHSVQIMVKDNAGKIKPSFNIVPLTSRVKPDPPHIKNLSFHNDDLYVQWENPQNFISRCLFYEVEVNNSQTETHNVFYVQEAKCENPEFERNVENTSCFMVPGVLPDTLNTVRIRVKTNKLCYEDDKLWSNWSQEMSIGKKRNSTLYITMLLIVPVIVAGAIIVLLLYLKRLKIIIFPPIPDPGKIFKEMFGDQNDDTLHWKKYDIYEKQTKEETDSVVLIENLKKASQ

B1: HuMab LC5002-002 (antibody, human IgG1, V domains shown)
VH: EVQLLESGGGLVQPGGSLRLSCAASGFTFNIYAMNWVRQAPGKGLEWVSVISGRGITTYYADSVKGRFTISRDNSKNTLYLQMNSLRADDTAVYYCAKGSSSWTDFDYWGQGTLVTVSS
VL: DIQMTQSPSSLSASVGDRVTITCRASQGISRWVAWYQQKPEKAPKSLIYAASSLQSGVPSRFSGSGSGTDFTLTISSLQPEDFATYYCQQYNSYPWTFGQGTKVEIK
notes: Human IgG1 kappa from a HuMab mouse hybridoma; Only the variable domains are tied to this antibody; also called hu-MAB<h-IL-13R alpha>LC.5002-002 (DSM ACC2709)
B2: HuMab LC5002-003 (antibody, V domains shown)
VH: B1 VH with G10D, V12I, N84D, D89E, S102Y
VL: B1 VL with R31S, V33L
notes: Human IgG1 kappa from a HuMab mouse hybridoma; Only the variable domains are tied to this antibody; also called LC50002-003; hu-MAB<h-IL-13Ralpha>LC.5002-003 (DSM ACC2710)
B3: HuMab LC5002-007 (antibody, human IgG1, V domains shown)
VH: QVQLVQSGAEVKKPGSSVKVSCKVSGGTFSSYAFSWVRQAPGQGLEWMGRIIPILGRTNYAQKFQGRVTITADKSTSTAYMEVSSLRSEDTAVYYCAREGETLDYFYYGMDVWGQGTTVTVSS
VL: EIVLTQSPGTLSLSPGERATLSCRASQSVSSSYLAWYQQKPGQAPRLLIYGASSRAIGIPDRFSGSGSGTDFTLTISRLEPEDFAVYYCQHYGSSLTFGGGTKVEIK
notes: Human IgG1 kappa from a HuMab mouse hybridoma; Only the variable domains are tied to this antibody; also called hu-MAB<h-IL-13R alpha>LC.5002-007 (DSM ACC2712)
B4: HuMab LC5002-005 (antibody, V domains shown)
VH: EVQVLDSGGGLVQPGGSLRLSCTASGFTFRLYTMSWVRQTPGRGLEWVSGISGSGLSTYFADSVKGRFTISRDNSKNTVYLQMNSLRAEDTAVYYCAKEGDWIYFDSWGQGTLVIVSS
VL: B1 VL with R31S, V33L, Y94H, W96P, V104L
notes: Only the variable domains are tied to this antibody; also called hu-MAB<h-IL-13Ralpha>LC.5002-005 (DSM ACC2711)

Numbering of substitutions follows the chain as printed.

The first assay concerns the target T1, hIL-13Rα1:hFc chimeric protein (R&D …). Description: competition ELISA: hIL-13Rα1:hFc coated, antibody first, then IL-13 plus IL-4Rα; bound IL-13 detected with biotinylated anti-IL-13. The procedure:
Microtiter plates were coated with 100 μl hIL-13Rα1:hFc chimeric protein (R&D Systems, UK) in PBS at 3 μg/ml at 4° C. overnight on a shaker. After washing the plates with WB, serially diluted HuMab and control antibodies (100 μl/well; dilutions in IB) were added and incubated for 30 min at RT. The plates were again washed, and then a mixture of IL-13 (R&D Systems, UK; 0.5 μg/ml; dilution with IB) and IL-4Rα (R&D Systems, UK; 0.75 μg/ml; dilution with IB) were added and incubated for 1 h at RT. After washing the plates 100 μl biotinylated anti IL-13 antibody (BAF213; R&D Systems, UK) in a concentration of 0.4 μg/ml was added and incubated for 1 h at RT. After washing the plates, bound IL-13 was detected by peroxidase-coupled streptavidin (Roche Diagnostics GmbH, DE) in a dilution of 1:5000 in IB (incubation period 1 h at RT). Finally, plates were washed and developed with ready-to-use ABTS® solution (Roche Diagnostics GmbH, DE) at room temperature (RT) in the dark. Absorbance was measured at 405 nm after 45 to 60 minutes.
A general note: An ELISA detects its analyte on a solid surface through an enzyme-linked reagent.
As for B1, the “IC50 (read off the curve)” value is 1 to 2.5 nM.
With B2, the “IC50 (read off the curve)” value was roughly 2 nM.
As to B3, the “IC50 (read off the curve)” value is roughly 1 nM.

The target in a further assay is T2, Cynomolgus IL-13Rα1 expressed in …. Description: FACS, transfected against parental Ba/F3 cells, 10 µg/ml. The procedure:
(§1) The gene coding for IL-13Rα1 was isolated by RT-PCR from Cynomolgus tissue and transfected into in the murine cell line Ba/F3. In order to test whether the HuMabs crossreact with Cynomolgus IL-13Rα1, the stably transfected Ba/F3 cells as well as the parental Ba/F3 cells were incubated with 10 μg/ml of HuMab and control antibodies. As positive control, a polyclonal goat-anti hIL-13Rα1 (R&D Systems) was used. Negative controls included were: a human IgG1 myeloma protein (Nordic) and normal goat serum. Bound antibodies were detected by FACS analysis using an antibody directed against human IgG conjugated with FITC to detect HuMabs and an antibody directed against goat IgG conjugated with FITC to detect goat antibodies. Mean fluorescence intensities (MFI) were compared for the individual antibodies tested on the transfected Ba/F3 line versus the parental line.
(§2) All HuMabs of the invention were able to bind to Cynomolgus IL-13Rα1 expressed in transfected Ba/F3 cells. As expected from the close homology between human and Cynomolgus IL-13Rα1, the polyclonal AF152 antibody also bound to the Cynomolgus IL-13Rα1.
On to B4, for which the “Fold Increase in MFI in the presence of Cyno_IL-13Rα1” value (“Fold Increase in MFI in the presence” below) came to 86.7.
On to B1, for which the “Fold Increase in MFI in the presence” value was 79.8.
In the case of B2, the “Fold Increase in MFI in the presence” value was found to be 79.
As to B3, the “Fold Increase in MFI in the presence” value worked out at 14.9.

A further assay has the same target. Briefly: FACS on Ba/F3 cells transfected with Cynomolgus IL-13Rα1, 10 µg/ml. The procedure:
as §1, §2
Turning to B4, the “MFI Ba/F3_Cyno_IL-13Rα1” value was found to be 102 MFI.
For the molecule B1, the “MFI Ba/F3_Cyno_IL-13Rα1” value came out at 83.7 MFI.
As for B2, the “MFI Ba/F3_Cyno_IL-13Rα1” value worked out at 82.4 MFI.
As to B3, the “MFI Ba/F3_Cyno_IL-13Rα1” value amounted to 19 MFI.

The next assay concerns the target T3, human IL-13Rα1. Briefly: radioligand competition: 125I-IL-13 (0.1 nM) binding to CHO cells expressing human IL-13Rα1 and IL-4Rα. The protocol:
¹²⁵I-IL-13 binding assay was performed using CHO cells expressing human IL-13Rα1 and human IL-4Rα in binding buffer (25 mM HEPES, 150 mM NaCl, 1 mM CaCl₂, 5 mM MgCl₂, and 0.5% bovine serum albumin, adjusted to pH 7.2). 1×10⁵ cells per well were mixed with the antibodies and preincubated for 15 minutes to 1 hour. 0.1 nM ¹²⁵I-IL-13 was added, and the mix was incubated at 4° C. for 4 hours. The concentration of ¹²⁵I-IL-13 used in the assay was determined from saturation binding analysis, competition analysis and determination of input ¹²⁵I-IL-13 to reach equilibrium binding with the cell line. Samples were harvested onto a GF/C filter plate pretreated with 1% PEI/0.5% BSA and counted on Packard TopCount Scintillation counter. Data analysis was performed in PRISM using nonlinear regression curve fit (GraphPad Software, San Diego, Calif.).
Regarding B4, the “IC50 (read off the curve)” value is roughly 0.1 nM.
As to B1, the “IC50 (read off the curve)” value was roughly 0.1 nM.
Regarding B2, the “IC50 (read off the curve)” value is roughly 0.2 nM.
